Reference: PMC9482650, “Quantitative fragmentomics allow affinity mapping of interactomes” (Nature Communications, 2022)

T1: ARHGAP21, Q5T5U3
T1 sequence (Q5T5U3 45-169, limits assumed, looked up): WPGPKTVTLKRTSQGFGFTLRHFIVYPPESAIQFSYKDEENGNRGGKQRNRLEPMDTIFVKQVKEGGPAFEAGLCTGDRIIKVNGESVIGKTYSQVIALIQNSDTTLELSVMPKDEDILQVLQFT

T2: APBA2_1, Q99767
T2 sequence (Q99767 563-664, limits assumed, looked up): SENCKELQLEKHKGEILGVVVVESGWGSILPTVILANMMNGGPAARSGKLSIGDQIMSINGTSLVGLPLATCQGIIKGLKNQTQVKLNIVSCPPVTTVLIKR

T3: TJP3_3, O95049
T3 sequence (O95049 375-456, limits assumed, looked up): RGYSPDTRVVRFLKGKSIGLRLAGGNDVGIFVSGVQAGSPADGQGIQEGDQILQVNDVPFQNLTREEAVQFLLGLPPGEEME

T4: PDZD7_3, Q9H5P4
T4 sequence (Q9H5P4 857-944, limits assumed, looked up): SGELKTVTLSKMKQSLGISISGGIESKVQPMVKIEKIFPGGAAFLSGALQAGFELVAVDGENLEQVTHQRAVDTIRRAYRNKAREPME

T5: SHANK1, Q9Y566
T5 sequence (Q9Y566 658-767, limits assumed, looked up): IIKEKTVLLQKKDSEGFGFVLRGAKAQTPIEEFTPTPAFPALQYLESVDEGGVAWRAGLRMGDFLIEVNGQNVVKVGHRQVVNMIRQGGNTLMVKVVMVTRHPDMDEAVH

T6: SNTB1, Q13884
T6 sequence (Q13884 107-205, limits assumed, looked up): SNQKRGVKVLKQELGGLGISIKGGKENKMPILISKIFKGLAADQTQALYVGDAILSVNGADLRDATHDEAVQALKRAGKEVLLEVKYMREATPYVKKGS

T7: DVL3, Q92997
T7 sequence (Q92997 244-331, limits assumed, looked up): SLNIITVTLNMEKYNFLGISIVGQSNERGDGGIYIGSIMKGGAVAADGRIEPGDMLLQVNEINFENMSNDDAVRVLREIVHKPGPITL

T8: DLG3_1, Q92796
T8 sequence (Q92796 125-227, limits assumed, looked up): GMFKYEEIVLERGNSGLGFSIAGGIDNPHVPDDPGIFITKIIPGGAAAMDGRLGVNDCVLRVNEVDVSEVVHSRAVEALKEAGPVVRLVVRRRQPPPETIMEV

T9: GRIP1_5, Q9Y3R0
T9 sequence (Q9Y3R0 568-668, limits assumed, looked up): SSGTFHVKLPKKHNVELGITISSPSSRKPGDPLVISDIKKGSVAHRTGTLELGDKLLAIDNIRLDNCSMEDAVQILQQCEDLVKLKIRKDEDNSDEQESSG

T10: FRMPD1, Q5SYB0
T10 sequence (Q5SYB0 52-145, limits assumed, looked up): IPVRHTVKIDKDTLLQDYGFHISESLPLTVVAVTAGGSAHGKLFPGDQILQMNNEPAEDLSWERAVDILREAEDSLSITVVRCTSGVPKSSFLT

T11: APBA3_1, O96018
T11 sequence (O96018 389-490, limits assumed, looked up): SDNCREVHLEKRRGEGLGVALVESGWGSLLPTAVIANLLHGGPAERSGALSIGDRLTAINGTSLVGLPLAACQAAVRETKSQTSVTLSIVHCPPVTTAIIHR

T12: SYNJ2BP, P57105
T12 sequence (P57105 8-110, limits assumed, looked up): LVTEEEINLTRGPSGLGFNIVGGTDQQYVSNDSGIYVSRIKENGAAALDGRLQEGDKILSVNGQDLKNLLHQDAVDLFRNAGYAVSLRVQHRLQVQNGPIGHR

T13: DLG3_2, Q92796
T13 sequence (Q92796 221-321, limits assumed, looked up): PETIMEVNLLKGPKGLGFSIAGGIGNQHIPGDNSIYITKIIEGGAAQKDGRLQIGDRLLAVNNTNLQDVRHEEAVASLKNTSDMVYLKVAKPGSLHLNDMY


Columns and labels:
Assay in all cases: holdup assay
Parameters in all cases: key: below the threshold = too weak to quantify, mostly under pKd 3.1 to 4
Conditions in all cases: plain residues with an end cap or a label only (N-terminal biotin on a linker: ado-ado)
GRIP2_4, Q9C0E4 = target: GRIP2_4, Q9C0E4
ARHGAP21, Q5T5U3 = target: T1, ARHGAP21, Q5T5U3
APBA2_1, Q99767 = target: T2, APBA2_1, Q99767
Inadl_6, Q8NI35 = target: Inadl_6, Q8NI35
TJP3_3, O95049 = target: T3, TJP3_3, O95049
PDZD7_3, Q9H5P4 = target: T4, PDZD7_3, Q9H5P4
SHANK1, Q9Y566 = target: T5, SHANK1, Q9Y566
MAST1, Q9Y2H9 = target: MAST1, Q9Y2H9
MAGI2_6, Q86UL8 = target: MAGI2_6, Q86UL8
MAGI2_5, Q86UL8 = target: MAGI2_5, Q86UL8
HTRA1, Q92743 = target: HTRA1, Q92743
Inadl_4, Q8NI35 = target: Inadl_4, Q8NI35
SNTB1, Q13884 = target: T6, SNTB1, Q13884
SCRIB_2, Q14160 = target: SCRIB_2, Q14160
GRID2IP_2, A4D2P6 = target: GRID2IP_2, A4D2P6
DVL3, Q92997 = target: T7, DVL3, Q92997
DLG3_1, Q92796 = target: T8, DLG3_1, Q92796
GRIP1_5, Q9Y3R0 = target: T9, GRIP1_5, Q9Y3R0
FRMPD1, Q5SYB0 = target: T10, FRMPD1, Q5SYB0
DLG1_2, Q12959 = target: DLG1_2, Q12959
PDLIM1, O00151 = target: PDLIM1, O00151
APBA3_1, O96018 = target: T11, APBA3_1, O96018
SYNJ2BP, P57105 = target: T12, SYNJ2BP, P57105
DLG3_2, Q92796 = target: T13, DLG3_2, Q92796

MAGI2_6, Q86UL8, sequence (Q86UL8 1141-1229): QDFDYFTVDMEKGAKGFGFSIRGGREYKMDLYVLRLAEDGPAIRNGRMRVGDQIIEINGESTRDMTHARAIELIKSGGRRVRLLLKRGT
MAGI2_5, Q86UL8, sequence (Q86UL8 915-1017): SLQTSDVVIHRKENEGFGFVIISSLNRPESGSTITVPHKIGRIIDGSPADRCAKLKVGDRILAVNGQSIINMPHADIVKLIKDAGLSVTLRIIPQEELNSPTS
Inadl_4, Q8NI35, sequence (Q8NI35 547-651): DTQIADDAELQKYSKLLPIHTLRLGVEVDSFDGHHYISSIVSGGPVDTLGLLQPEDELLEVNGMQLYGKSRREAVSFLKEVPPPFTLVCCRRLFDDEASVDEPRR
MAST1, Q9Y2H9, sequence (Q9Y2H9 962-1065): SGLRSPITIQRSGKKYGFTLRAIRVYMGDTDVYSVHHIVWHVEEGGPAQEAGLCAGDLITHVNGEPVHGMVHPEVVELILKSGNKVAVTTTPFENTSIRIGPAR
DLG1_2, Q12959, sequence (Q12959 314-412): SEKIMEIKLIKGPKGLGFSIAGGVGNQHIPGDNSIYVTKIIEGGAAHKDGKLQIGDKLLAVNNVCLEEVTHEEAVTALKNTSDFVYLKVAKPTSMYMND
PDLIM1, O00151, sequence (O00151 1-87): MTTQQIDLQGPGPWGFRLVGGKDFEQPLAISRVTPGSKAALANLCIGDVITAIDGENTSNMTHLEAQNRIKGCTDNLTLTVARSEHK
GRIP2_4, Q9C0E4, sequence (Q9C0E4 446-548): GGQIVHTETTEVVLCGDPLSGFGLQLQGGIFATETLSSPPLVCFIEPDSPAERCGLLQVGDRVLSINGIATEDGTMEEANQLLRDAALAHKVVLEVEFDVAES
HTRA1, Q92743, sequence (Q92743 360-477): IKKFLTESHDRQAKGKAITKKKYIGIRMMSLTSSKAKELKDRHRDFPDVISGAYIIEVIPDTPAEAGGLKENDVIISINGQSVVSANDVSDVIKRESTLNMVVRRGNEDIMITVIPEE
Inadl_6, Q8NI35, sequence (Q8NI35 1058-1167): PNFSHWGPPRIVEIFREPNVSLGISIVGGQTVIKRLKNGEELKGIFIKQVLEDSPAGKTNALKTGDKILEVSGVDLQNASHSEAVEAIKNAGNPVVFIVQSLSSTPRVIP
GRID2IP_2, A4D2P6, sequence (A4D2P6 272-370): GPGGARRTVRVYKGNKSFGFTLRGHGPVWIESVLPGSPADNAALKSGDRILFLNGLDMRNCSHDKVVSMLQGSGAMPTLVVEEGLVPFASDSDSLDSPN
SCRIB_2, Q14160, sequence (Q14160 857-960): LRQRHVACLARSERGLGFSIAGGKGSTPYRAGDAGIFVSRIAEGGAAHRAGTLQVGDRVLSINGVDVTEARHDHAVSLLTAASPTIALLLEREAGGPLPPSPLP

| pKd (GRIP2_4, Q9C0E4) | pKd (ARHGAP21, Q5T5U3) | pKd (APBA2_1, Q99767) | pKd (Inadl_6, Q8NI35) | pKd (TJP3_3, O95049) | pKd (PDZD7_3, Q9H5P4) | pKd (SHANK1, Q9Y566) | pKd (MAST1, Q9Y2H9) | pKd (MAGI2_6, Q86UL8) | pKd (MAGI2_5, Q86UL8) | pKd (HTRA1, Q92743) | pKd (Inadl_4, Q8NI35) | pKd (SNTB1, Q13884) | pKd (SCRIB_2, Q14160) | pKd (GRID2IP_2, A4D2P6) | pKd (DVL3, Q92997) | pKd (DLG3_1, Q92796) | pKd (GRIP1_5, Q9Y3R0) | pKd (FRMPD1, Q5SYB0) | pKd (DLG1_2, Q12959) | Binder | other results |
| --- | --- | --- | --- | --- | --- | --- | --- | --- | --- | --- | --- | --- | --- | --- | --- | --- | --- | --- | --- | --- | --- |
| below the threshold | 4.12 | 3.54 | 3.94 | below the threshold | 4.8 | 5.68 | 5.07 | 4.2 | 4.45 | 3.92 | below the threshold | 3.94 | 3.79 | 5.32 | below the threshold | below the threshold | below the threshold | below the threshold | below the threshold | EAVTVESTSL [SLC22A11, Q9NSA0] | pKd (PDLIM1, O00151): 3.71; pKd (APBA3_1, O96018): below the threshold; pKd (SYNJ2BP, P57105): 4.15; pKd (DLG3_2, Q92796): below the threshold |
| below the threshold | 4.14 | below the threshold | below the threshold | below the threshold | below the threshold | below the threshold | below the threshold | below the threshold | below the threshold | 4.32 | below the threshold | 3.56 | below the threshold | 3.66 | below the threshold | below the threshold | below the threshold | below the threshold | below the threshold | KSRPENGTVC [TMEM178B, H3BS89] | pKd (PDLIM1, O00151): below the threshold; pKd (APBA3_1, O96018): below the threshold; pKd (SYNJ2BP, P57105): 3.93; pKd (DLG3_2, Q92796): 3.54 |
| below the threshold | 4 | below the threshold | below the threshold | below the threshold | 3.9 | below the threshold | below the threshold | below the threshold | below the threshold | below the threshold | below the threshold | below the threshold | below the threshold | 3.75 | below the threshold | below the threshold | below the threshold | below the threshold | below the threshold | QQGLLPHSSC [TYRO3, Q06418] | pKd (PDLIM1, O00151): below the threshold; pKd (APBA3_1, O96018): below the threshold; pKd (SYNJ2BP, P57105): below the threshold; pKd (DLG3_2, Q92796): below the threshold |

More lines, now with the values behind:

| Binder | pKd (GRIP2_4, Q9C0E4) | pKd (ARHGAP21, Q5T5U3) | pKd (APBA2_1, Q99767) | pKd (Inadl_6, Q8NI35) | pKd (TJP3_3, O95049) | pKd (PDZD7_3, Q9H5P4) | pKd (SHANK1, Q9Y566) | pKd (MAST1, Q9Y2H9) | pKd (MAGI2_6, Q86UL8) | pKd (MAGI2_5, Q86UL8) | pKd (HTRA1, Q92743) | pKd (Inadl_4, Q8NI35) | pKd (SNTB1, Q13884) | pKd (SCRIB_2, Q14160) | pKd (GRID2IP_2, A4D2P6) | pKd (DVL3, Q92997) | pKd (DLG3_1, Q92796) | pKd (GRIP1_5, Q9Y3R0) | pKd (FRMPD1, Q5SYB0) | pKd (DLG1_2, Q12959) | other results |
| --- | --- | --- | --- | --- | --- | --- | --- | --- | --- | --- | --- | --- | --- | --- | --- | --- | --- | --- | --- | --- | --- |
| IQISELETNV [SLC1A7, O00341] | below the threshold | 3.98 | below the threshold | 4.04 | below the threshold | 4.85 | 3.94 | 4.71 | 4.31 | 4.11 | 3.76 | below the threshold | 5.37 | 4.16 | 3.49 | below the threshold | 3.91 | below the threshold | below the threshold | 4.91 | pKd (PDLIM1, O00151): below the threshold; pKd (APBA3_1, O96018): below the threshold; pKd (SYNJ2BP, P57105): 4.56; pKd (DLG3_2, Q92796): 4.66 |
| AHGSTRDQSI [KCNB1, Q14721] | 3.68 | below the threshold | below the threshold | below the threshold | 3.51 | 3.67 | 3.78 | 3.69 | below the threshold | below the threshold | 3.53 | below the threshold | below the threshold | below the threshold | below the threshold | 3.66 | 3.68 | 3.54 | below the threshold | below the threshold | pKd (PDLIM1, O00151): below the threshold; pKd (APBA3_1, O96018): below the threshold; pKd (SYNJ2BP, P57105): below the threshold; pKd (DLG3_2, Q92796): 4.21 |
| PEKVSNTTVV [IGSF5, Q9NSI5] | below the threshold | below the threshold | below the threshold | below the threshold | below the threshold | 4.66 | below the threshold | 4.53 | below the threshold | 3.64 | 4.49 | below the threshold | 3.93 | below the threshold | below the threshold | below the threshold | 3.83 | below the threshold | below the threshold | 4.64 | pKd (PDLIM1, O00151): below the threshold; pKd (APBA3_1, O96018): below the threshold; pKd (SYNJ2BP, P57105): 3.51; pKd (DLG3_2, Q92796): 4.73 |
